This passage reports pKa results from paper PMC3466273.

This series has as its target His1 (position 1, -----HTASDA). The series can be described thus: potentiometry. To be noted: not stated (electrode with a thermo-compensating apparatus); not stated (no added salt; distilled water with about 1 mM HCl/NaOH); none (distilled water acidified with 1 mM HCl, titrated with 1 mM NaOH); free peptide, 0.27 mM, 5 mL, in water.

One may read the pKa as the pH at which an ionisable group is half protonated.

With HTASDAAAAAALTAANAAAAAAASMA, the pKa is listed as 6.0.
